Assay [1] concerns the target T1, ADAMTS-5 lacking the C-terminal thrombospondin domain (UniProt Q9UNA0 262-874).
T1 sequence (looked up): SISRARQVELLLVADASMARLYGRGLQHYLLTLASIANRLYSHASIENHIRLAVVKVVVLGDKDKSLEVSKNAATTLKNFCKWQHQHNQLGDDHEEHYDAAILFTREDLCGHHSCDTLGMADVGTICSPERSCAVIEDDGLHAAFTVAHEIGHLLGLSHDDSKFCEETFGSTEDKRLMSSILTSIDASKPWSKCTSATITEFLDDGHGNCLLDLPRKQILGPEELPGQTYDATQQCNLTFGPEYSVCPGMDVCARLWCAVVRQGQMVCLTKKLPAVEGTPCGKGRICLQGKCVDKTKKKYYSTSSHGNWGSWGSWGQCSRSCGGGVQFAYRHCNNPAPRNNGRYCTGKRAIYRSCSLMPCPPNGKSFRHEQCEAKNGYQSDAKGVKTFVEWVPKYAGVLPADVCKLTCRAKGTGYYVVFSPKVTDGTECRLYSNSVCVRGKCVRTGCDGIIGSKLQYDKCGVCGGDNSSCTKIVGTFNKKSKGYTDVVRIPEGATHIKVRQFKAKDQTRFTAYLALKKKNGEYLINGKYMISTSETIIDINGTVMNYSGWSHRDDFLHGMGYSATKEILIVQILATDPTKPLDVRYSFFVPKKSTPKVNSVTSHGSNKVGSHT
Kind of assay: steady-state enzyme inhibition kinetics.

In assay [2] the target is LRP-1 ectodomain (low-density lipoprotein receptor-related protein 1) (UniProt Q07954 20-4419). Nature of the assay: ELISA.
Sequence of LRP-1 ectodomain (low-density lipoprotein receptor-related protein 1) (Q07954 20-4419): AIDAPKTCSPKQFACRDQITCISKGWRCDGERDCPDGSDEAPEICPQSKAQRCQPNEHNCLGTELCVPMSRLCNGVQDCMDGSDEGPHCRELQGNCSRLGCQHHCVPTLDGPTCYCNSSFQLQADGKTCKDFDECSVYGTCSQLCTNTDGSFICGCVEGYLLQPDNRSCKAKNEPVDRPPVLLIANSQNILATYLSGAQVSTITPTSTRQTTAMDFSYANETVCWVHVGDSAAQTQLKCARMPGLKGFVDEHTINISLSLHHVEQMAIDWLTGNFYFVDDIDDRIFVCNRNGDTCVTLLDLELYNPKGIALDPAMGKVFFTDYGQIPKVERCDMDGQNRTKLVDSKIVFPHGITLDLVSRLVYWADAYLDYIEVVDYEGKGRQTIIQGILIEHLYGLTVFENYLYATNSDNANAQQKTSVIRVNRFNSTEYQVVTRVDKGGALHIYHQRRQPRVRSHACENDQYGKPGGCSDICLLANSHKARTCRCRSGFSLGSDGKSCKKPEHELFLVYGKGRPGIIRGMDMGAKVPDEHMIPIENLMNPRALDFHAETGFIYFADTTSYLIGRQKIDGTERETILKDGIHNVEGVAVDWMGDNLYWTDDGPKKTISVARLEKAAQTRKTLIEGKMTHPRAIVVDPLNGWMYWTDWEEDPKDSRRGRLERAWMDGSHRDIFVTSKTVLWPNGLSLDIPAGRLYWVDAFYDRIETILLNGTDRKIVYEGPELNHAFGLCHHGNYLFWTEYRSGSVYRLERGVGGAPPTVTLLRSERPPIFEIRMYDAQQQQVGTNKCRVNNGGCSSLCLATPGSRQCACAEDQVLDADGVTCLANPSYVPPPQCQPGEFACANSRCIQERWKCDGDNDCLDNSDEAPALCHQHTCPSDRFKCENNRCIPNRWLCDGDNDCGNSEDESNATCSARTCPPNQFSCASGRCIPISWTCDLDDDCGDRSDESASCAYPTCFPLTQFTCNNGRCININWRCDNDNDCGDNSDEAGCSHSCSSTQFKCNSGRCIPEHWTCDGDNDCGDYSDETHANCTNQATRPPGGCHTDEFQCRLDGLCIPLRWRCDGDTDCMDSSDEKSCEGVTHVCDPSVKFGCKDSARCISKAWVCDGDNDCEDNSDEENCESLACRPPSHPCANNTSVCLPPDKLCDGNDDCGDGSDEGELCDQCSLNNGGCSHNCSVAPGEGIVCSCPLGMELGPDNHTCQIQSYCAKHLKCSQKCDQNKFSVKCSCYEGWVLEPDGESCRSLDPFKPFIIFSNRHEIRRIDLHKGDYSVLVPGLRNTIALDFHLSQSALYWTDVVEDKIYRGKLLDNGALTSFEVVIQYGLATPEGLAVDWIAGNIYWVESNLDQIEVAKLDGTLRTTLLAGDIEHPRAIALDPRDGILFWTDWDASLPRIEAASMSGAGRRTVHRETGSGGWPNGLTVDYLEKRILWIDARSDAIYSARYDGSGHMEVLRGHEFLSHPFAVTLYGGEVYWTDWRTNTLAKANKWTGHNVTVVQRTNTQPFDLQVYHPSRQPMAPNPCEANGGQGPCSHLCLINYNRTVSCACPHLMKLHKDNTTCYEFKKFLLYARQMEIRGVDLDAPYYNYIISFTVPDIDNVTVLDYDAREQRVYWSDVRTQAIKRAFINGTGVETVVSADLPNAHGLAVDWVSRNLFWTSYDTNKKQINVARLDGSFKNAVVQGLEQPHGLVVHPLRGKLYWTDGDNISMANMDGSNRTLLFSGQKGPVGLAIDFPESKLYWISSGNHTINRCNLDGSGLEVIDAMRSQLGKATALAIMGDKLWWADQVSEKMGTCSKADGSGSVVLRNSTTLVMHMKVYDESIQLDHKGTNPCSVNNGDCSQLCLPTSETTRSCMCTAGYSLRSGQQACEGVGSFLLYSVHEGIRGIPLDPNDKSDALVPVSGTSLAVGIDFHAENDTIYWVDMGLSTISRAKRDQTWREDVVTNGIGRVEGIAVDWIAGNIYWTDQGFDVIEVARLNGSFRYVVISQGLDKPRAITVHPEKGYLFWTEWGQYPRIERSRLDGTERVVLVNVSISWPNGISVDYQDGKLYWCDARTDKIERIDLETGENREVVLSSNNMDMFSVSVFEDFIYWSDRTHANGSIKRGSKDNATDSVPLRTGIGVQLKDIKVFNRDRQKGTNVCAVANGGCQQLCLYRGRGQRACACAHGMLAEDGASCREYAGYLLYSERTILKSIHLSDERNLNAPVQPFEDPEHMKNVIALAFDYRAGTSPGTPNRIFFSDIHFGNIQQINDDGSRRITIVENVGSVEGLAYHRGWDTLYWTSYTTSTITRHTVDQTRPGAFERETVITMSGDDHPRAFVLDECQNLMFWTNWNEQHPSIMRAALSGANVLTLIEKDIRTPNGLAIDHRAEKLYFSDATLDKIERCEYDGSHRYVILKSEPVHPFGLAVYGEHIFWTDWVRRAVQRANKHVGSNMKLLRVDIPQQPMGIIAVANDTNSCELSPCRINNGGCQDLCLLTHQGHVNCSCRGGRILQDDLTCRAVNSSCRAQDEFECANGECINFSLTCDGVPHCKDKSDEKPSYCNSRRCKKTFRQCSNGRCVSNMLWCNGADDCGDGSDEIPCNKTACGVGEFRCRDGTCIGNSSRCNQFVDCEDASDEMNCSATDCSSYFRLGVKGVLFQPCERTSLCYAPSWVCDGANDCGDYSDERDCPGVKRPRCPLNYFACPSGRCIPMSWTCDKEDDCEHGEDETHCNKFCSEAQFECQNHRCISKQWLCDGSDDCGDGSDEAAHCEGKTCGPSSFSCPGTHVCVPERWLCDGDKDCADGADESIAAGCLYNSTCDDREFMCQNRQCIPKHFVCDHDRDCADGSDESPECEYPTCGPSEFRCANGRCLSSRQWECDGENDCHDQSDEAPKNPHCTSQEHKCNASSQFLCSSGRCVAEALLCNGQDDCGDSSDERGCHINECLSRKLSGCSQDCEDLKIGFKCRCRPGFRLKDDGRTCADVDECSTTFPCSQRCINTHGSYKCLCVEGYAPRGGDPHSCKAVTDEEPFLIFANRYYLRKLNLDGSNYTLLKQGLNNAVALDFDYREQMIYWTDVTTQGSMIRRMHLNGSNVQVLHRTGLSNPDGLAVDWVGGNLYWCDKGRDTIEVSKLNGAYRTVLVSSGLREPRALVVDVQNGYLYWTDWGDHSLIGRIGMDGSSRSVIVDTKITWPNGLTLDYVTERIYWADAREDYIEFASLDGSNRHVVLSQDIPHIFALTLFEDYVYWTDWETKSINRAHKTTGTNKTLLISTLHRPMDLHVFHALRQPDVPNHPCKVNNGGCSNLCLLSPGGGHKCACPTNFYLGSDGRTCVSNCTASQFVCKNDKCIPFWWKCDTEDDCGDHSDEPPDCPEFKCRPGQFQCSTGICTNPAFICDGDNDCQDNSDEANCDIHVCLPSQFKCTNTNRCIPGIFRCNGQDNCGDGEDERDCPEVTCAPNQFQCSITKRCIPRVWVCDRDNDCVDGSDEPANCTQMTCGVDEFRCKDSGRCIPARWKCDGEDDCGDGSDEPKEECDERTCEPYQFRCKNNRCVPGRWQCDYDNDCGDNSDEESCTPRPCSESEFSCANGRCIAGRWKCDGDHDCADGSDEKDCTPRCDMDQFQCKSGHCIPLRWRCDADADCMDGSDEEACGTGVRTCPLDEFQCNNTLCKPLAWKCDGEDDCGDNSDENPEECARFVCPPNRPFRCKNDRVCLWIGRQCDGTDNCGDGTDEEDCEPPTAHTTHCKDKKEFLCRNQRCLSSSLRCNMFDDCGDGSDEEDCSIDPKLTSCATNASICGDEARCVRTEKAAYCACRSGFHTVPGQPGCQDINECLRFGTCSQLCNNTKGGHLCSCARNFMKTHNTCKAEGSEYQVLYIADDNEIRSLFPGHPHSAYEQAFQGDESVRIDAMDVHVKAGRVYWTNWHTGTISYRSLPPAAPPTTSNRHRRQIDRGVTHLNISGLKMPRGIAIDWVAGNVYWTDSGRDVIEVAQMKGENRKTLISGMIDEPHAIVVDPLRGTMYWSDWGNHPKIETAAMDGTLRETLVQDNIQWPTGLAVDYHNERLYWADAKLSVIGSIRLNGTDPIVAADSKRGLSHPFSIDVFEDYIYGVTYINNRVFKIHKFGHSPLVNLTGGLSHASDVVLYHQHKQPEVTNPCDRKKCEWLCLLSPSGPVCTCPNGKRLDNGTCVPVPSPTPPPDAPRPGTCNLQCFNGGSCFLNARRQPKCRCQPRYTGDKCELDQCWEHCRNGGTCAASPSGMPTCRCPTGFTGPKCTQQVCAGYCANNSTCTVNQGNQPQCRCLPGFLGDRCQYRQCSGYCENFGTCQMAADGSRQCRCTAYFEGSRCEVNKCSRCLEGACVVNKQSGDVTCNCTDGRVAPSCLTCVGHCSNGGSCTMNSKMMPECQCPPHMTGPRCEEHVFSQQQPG

Experimental findings from publication PMC4210636 (Chemistry & Biology, 2014) are described below.

B1: C-terminally FLAG-tagged human TIMP-3 (tissue inhibitor of metalloproteinases 3) (natural protein, UniProt P35625 24-211, looked up)
chain: CTCSPSHPQDAFCNSDIVIRAKVVGKKLVKEGPFGTLVYTIKQMKMYRGFTKMPHVQYIHTEASESLCGLKLEVNKYQYLLTGRVYDGKMYTGLCNFVERWDQLTLSQRKGLNYRYHLGCNCKIKSCYYLPCFVTSKNECLWTDMLSNFGYPGYQSKHYACIRQKGGYCSWYRGWAPPDKSIINATDP
B1 yielded a Ki in assay [1] of 1.36 ± 0.02 nM. Moreover, in assay [2], the Kd is 28 ± 6 nM.
